Reference: article doi:10.1101/2023.09.24.559210

Experiments:
[1] = molecular target: JAM-A C-terminal 10mer peptide, N-terminally FITC-conjugated; experiment: fluorescence polarisation
[2] = molecular target: nectin-1 C-terminal 10mer peptide, N-terminally FITC-conjugated; experiment: fluorescence polarisation
[3] = molecular target: JAM-A C-terminal 10mer peptide, N-terminally biotinylated; experiment: BLI
[4] = molecular target: nectin-1 C-terminal 10mer peptide, N-terminally biotinylated; experiment: BLI

B1: human afadin PDZ domain (domain or fragment)
chain: IITVTLKKQNGMGLSIVAAKGAGQDKLGIYVKSVVKGGAADVDGRLAAGDQLLSVDGRSLVGLSQERAAELMTRTSSVVTLEVAKQG
[1]
  Kd: 5 µM
[2]
  Kd: 3 µM
[3]
  Kd: 5 µM
  bond lifetime: 0.65 s
[4]
  Kd: 3 µM
  bond lifetime: 1.2 s
